Experimental findings from patent publication EP3344659B1 (Immunwork Inc., dated 2025) are described below.

The target of this experiment is T1, human fibrinogen (human, UniProt P02671 20-629; P02675 31-491; P02679 27-437, limits assumed).
T1 construct: Bought from Sigma and coated on 96-well plates; also called fibrinogen plate
T1 sequence (looked up) 1: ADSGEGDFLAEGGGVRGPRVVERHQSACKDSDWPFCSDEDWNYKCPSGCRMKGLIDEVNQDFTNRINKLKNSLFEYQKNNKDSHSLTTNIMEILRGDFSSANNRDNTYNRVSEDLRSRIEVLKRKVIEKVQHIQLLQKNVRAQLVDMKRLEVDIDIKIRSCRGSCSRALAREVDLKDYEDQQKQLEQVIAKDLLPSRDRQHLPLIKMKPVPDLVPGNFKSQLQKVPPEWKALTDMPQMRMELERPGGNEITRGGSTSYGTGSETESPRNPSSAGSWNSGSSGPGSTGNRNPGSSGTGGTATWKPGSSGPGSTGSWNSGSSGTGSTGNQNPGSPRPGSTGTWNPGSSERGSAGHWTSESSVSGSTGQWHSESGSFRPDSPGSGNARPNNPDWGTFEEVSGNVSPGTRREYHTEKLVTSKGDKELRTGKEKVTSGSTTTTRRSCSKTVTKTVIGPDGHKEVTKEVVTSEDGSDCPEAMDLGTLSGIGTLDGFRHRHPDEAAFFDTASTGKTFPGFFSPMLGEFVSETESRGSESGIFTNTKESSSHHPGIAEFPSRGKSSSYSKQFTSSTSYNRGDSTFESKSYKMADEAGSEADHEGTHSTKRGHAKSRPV
T1 sequence (looked up) 2: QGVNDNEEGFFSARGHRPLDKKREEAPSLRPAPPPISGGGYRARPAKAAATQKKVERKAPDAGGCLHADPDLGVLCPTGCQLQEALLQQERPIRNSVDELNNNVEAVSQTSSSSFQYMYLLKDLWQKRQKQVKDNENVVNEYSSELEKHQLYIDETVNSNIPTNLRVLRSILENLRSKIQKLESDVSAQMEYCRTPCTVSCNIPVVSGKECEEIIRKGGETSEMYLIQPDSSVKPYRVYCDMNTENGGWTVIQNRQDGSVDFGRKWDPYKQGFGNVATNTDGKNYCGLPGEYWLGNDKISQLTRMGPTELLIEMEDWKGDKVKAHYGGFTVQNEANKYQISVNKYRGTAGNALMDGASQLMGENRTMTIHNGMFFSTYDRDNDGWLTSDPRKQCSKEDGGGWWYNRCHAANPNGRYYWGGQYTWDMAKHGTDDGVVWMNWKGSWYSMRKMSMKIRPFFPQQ
T1 sequence (looked up) 3: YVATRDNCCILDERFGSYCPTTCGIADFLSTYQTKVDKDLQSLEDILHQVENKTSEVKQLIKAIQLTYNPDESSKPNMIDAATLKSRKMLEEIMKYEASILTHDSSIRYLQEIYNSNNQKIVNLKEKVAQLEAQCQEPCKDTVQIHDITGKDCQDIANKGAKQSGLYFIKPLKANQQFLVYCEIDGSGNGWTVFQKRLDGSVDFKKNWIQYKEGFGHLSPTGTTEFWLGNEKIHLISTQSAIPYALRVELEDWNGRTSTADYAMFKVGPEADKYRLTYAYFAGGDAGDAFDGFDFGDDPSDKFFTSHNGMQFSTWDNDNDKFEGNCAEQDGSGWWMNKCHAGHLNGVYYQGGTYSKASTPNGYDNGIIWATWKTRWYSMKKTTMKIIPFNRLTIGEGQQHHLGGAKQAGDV
The experiment can be described thus: ELISA on fibrinogen-coated plate (1 µg/well). In general terms: ELISA stands for enzyme-linked immunosorbent assay.

B1: 102-10 scFv specific for human fibrin (scFv)
scFv: DIQMTQSPSSLSASLGGKVTITCKASQDINKYIAWFQHKPGKGPRLLIHYTSTLQPGIPSRFSGSGSGRDYSFSISNLEPEDLATYYCLQYDNLTWTFGGGTKLEIKRGSTSGSGKPGSGEGSTKGQIQLVQSGPELKKPGETVKISCKASGYTFTNYGMNWVKQAPGKGLKWMGWINTYTGEATYADDFKGRFAFSLETSANTAYVQINNLKNEDTATYFCARLMDYWGQGTSVTVSSGGGGSGGGGSC
For B1, the binding result was “no binding”.
